Results reported in article PMC6852375 (The Febs Journal, 2019).

T1: Murine OPG-Fc (mouse, UniProt O08712 22-401)
T1 sequence (looked up): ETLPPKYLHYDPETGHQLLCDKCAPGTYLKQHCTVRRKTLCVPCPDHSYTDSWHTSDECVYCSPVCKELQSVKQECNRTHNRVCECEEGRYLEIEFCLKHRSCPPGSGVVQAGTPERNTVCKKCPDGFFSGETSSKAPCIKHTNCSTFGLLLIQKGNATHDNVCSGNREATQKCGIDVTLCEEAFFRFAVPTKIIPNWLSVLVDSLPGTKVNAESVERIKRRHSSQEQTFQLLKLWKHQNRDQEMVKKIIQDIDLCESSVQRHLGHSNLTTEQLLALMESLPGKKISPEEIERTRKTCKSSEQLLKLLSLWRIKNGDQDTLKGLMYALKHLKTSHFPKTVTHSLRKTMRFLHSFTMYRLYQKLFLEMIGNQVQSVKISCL

T2: Murine RANK-Fc (mouse, UniProt O35305 31-214)
T2 sequence (looked up): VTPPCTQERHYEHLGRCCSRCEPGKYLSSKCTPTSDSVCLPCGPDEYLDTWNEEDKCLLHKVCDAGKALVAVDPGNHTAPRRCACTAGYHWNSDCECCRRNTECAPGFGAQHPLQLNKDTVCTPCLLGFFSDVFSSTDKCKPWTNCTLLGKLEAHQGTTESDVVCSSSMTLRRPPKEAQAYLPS


Tests used:
Murine OPG-Fc [1] = target: T1, Murine OPG-Fc; test: SPR
Murine RANK-Fc = target: T2, Murine RANK-Fc; test: SPR
Murine OPG-Fc [2] = target: T1, Murine OPG-Fc; test: ELISA

Row | Binder | Kd (Murine OPG-Fc [1]) [nM] | koff (Murine OPG-Fc [1]) [s⁻¹] | kon (Murine OPG-Fc [1]) [M⁻¹ s⁻¹] | Kd (Murine RANK-Fc) [nM] | koff (Murine RANK-Fc) [s⁻¹] | kon (Murine RANK-Fc) [M⁻¹ s⁻¹] | binding relative to RANKL_WT (Murine OPG-Fc [2]) [%]
1 | RANKL_WT (mouse soluble RANKL, aa 160–316) (ligand, UniProt O35235 160-316, looked up) EAQPFAHLTINAASIPSGSHKVTLSSWYHDRGWAKISNMTLSNGKLRVNQDGFYYLYANICFRHHETSGSVPTDYLQLMVYVVKTSIKIPSSHNLMKGGSTKNWSGNSEFHFYSINVGGFFKLRAGEEISIQVSNPSLLDPDQDATYFGAFKVQDID | 0.0043 ± 0.0016 | 7e-05 | 1.8e+07 | 0.0119 ± 0.0015 | 0.0001 | 8.4e+06 | –
2 | RANKL_Q236P (ligand, mouse, UniProt O35235 160-316, looked up) EAQPFAHLTINAASIPSGSHKVTLSSWYHDRGWAKISNMTLSNGKLRVNQDGFYYLYANICFRHHETSGSVPTDYLPLMVYVVKTSIKIPSSHNLMKGGSTKNWSGNSEFHFYSINVGGFFKLRAGEEISIQVSNPSLLDPDQDATYFGAFKVQDID | 0.0213 ± 0.0082 | 0.00022 | 1.1e+07 | 0.0198 ± 0.006 | 0.00012 | 6.1e+06 | –
3 | RANKL_Q236N (ligand, mouse, UniProt O35235 160-316, looked up) EAQPFAHLTINAASIPSGSHKVTLSSWYHDRGWAKISNMTLSNGKLRVNQDGFYYLYANICFRHHETSGSVPTDYLNLMVYVVKTSIKIPSSHNLMKGGSTKNWSGNSEFHFYSINVGGFFKLRAGEEISIQVSNPSLLDPDQDATYFGAFKVQDID | 0.0207 ± 0.0037 | 0.00031 | 1.5e+07 | 0.0221 ± 0.0029 | 0.00017 | 7.9e+06 | –
4 | RANKL_Q236A (ligand, mouse, UniProt O35235 160-316, looked up) EAQPFAHLTINAASIPSGSHKVTLSSWYHDRGWAKISNMTLSNGKLRVNQDGFYYLYANICFRHHETSGSVPTDYLALMVYVVKTSIKIPSSHNLMKGGSTKNWSGNSEFHFYSINVGGFFKLRAGEEISIQVSNPSLLDPDQDATYFGAFKVQDID | 0.0205 ± 0.0022 | 0.00033 | 1.6e+07 | 0.0215 ± 0.0066 | 0.00018 | 8.9e+06 | –
5 | RANKL_Q236H (ligand, mouse, UniProt O35235 160-316, looked up) EAQPFAHLTINAASIPSGSHKVTLSSWYHDRGWAKISNMTLSNGKLRVNQDGFYYLYANICFRHHETSGSVPTDYLHLMVYVVKTSIKIPSSHNLMKGGSTKNWSGNSEFHFYSINVGGFFKLRAGEEISIQVSNPSLLDPDQDATYFGAFKVQDID | 0.0166 ± 0.0016 | 0.00022 | 1.3e+07 | 0.0187 ± 0.0028 | 0.00013 | 6.7e+06 | –
6 | RANKL_Q236S (ligand, mouse, UniProt O35235 160-316, looked up) EAQPFAHLTINAASIPSGSHKVTLSSWYHDRGWAKISNMTLSNGKLRVNQDGFYYLYANICFRHHETSGSVPTDYLSLMVYVVKTSIKIPSSHNLMKGGSTKNWSGNSEFHFYSINVGGFFKLRAGEEISIQVSNPSLLDPDQDATYFGAFKVQDID | 0.0233 ± 0.0045 | 0.00031 | 1.4e+07 | 0.0249 ± 0.0051 | 0.00018 | 7e+06 | –
7 | RANKL_Q236D (ligand, mouse, UniProt O35235 160-316, looked up) EAQPFAHLTINAASIPSGSHKVTLSSWYHDRGWAKISNMTLSNGKLRVNQDGFYYLYANICFRHHETSGSVPTDYLDLMVYVVKTSIKIPSSHNLMKGGSTKNWSGNSEFHFYSINVGGFFKLRAGEEISIQVSNPSLLDPDQDATYFGAFKVQDID | 0.112 ± 0.0244 | 0.0007 | 6e+06 | 0.015 ± 0.0032 | 9e-05 | 6.4e+06 | 25
8 | RANKL_Q236K (ligand, mouse, UniProt O35235 160-316, looked up) EAQPFAHLTINAASIPSGSHKVTLSSWYHDRGWAKISNMTLSNGKLRVNQDGFYYLYANICFRHHETSGSVPTDYLKLMVYVVKTSIKIPSSHNLMKGGSTKNWSGNSEFHFYSINVGGFFKLRAGEEISIQVSNPSLLDPDQDATYFGAFKVQDID | 0.143 ± 0.0446 | 0.00146 | 1.1e+07 | 0.119 ± 0.0105 | 0.00095 | 8e+06 | –
